Results from patent US20240287161A1 (NATIONAL UNIVERSITY CORPORATION TOTTORI UNIVERSITY, published 2024).

Legend:
[1] = target: T1, SARS-CoV2 S protein on VSV pseudovirus (SARS-CoV-2, UniProt P0DTC2 14-1273); assay: cell-based or functional assay
Authentic CoV2 [2] = target: T2, Authentic CoV2 (SARS-CoV-2 JPN/TY/WK-521); assay: cell-based or functional assay
[3] = target: MERS-CoV recombinant S protein RBD region, 9x His tag (Example 1) (MERS-CoV, UniProt K9N5Q8 367-606); assay: ELISA on RBD-coated plate (FIG. 3)
[4] = target: SARS-CoV1 recombinant S protein RBD region, 9x His tag (Example 1) (SARS-CoV1, UniProt P59594 306-527); assay: ELISA on RBD-coated plate (FIG. 3)
Authentic CoV2 [5] = target: T2, Authentic CoV2; assay: cell-based or functional assay; remark: listed apart in the source
[6] = target: T1, SARS-CoV2 S protein on VSV pseudovirus; assay: cell-based or functional assay; remark: listed apart in the source
[7] = target: SARS-CoV-2 spike receptor-binding domain (RBD, amino acids 322 to 536), histidine-tagged (Example 2) (SARS-CoV-2, UniProt P0DTC2 322-536)
[8] = target: T3, SARS-CoV1 spike protein on VSV pseudovirus (SARS-CoV-1, UniProt P59594 14-1255); assay: cell-based or functional assay
[9] = target: T3, SARS-CoV1 spike protein on VSV …; assay: cell-based or functional assay; remark: listed apart in the source

B1: NT-108 (recombinant human IgG1/kappa antibody) (antibody, V domains shown)
VH: EVQLQQSGPGLVKPSQTLSLTCSISGDSVSSNSAAWNWIRQSPSRGLEWLGRTYYRSKWYNDYAGTVKSRIAINPDTSKNQFSLHLNSVTPEDTAVYFCARVISVAGYAFDIWGQGTMVTVSS
VL: EIVLTQSPGTLSLSPGERATLSCRASQSVSSTFLAWYQQKPGQAPRLLIYGASYMATGIPDRFSGSGSGTDFTLTISRLEPEDFAVYYCQQYGSSLTFGGGTKLEIK
- IC50, pseudovirus neutralization [1]: 0.0061 µg/mL
- IC50, authentic virus neutralization (Authentic CoV2 [2]): 0.0403 µg/mL
- binding result [3]: no binding
- binding result [4]: no binding
- IC50, authentic virus neutralization [NT-108] (Authentic CoV2 [5]): 0.116 µg/mL
- IC50, pseudovirus neutralization [NT-108] [6]: 0.0057 µg/mL
- EC50 [7]: 0.455 µg/mL

B2: NT-108, human IgG4 subclass (antibody, V domains shown)
VH: EVQLQQSGPGLVKPSQTLSLTCSISGDSVSSNSAAWNWIRQSPSRGLEWLGRTYYRSKWYNDYAGTVKSRIAINPDTSKNQFSLHLNSVTPEDTAVYFCARVISVAGYAFDIWGQGTMVTVSS
VL: EIVLTQSPGTLSLSPGERATLSCRASQSVSSTFLAWYQQKPGQAPRLLIYGASYMATGIPDRFSGSGSGTDFTLTISRLEPEDFAVYYCQQYGSSLTFGGGTKLEIK
- IC50, authentic virus neutralization [NT-108] (Authentic CoV2 [5]): 0.116 µg/mL
- IC50, pseudovirus neutralization [NT-108] [6]: 0.0031 µg/mL

B3: NT-108, human IgG2 subclass (antibody, V domains shown)
VH: EVQLQQSGPGLVKPSQTLSLTCSISGDSVSSNSAAWNWIRQSPSRGLEWLGRTYYRSKWYNDYAGTVKSRIAINPDTSKNQFSLHLNSVTPEDTAVYFCARVISVAGYAFDIWGQGTMVTVSS
VL: EIVLTQSPGTLSLSPGERATLSCRASQSVSSTFLAWYQQKPGQAPRLLIYGASYMATGIPDRFSGSGSGTDFTLTISRLEPEDFAVYYCQQYGSSLTFGGGTKLEIK
- IC50, authentic virus neutralization [NT-108] (Authentic CoV2 [5]): 0.101 µg/mL
- IC50, pseudovirus neutralization [NT-108] [6]: 0.002 µg/mL

B4: NT-108, human IgG3 subclass (antibody, V domains shown)
VH: EVQLQQSGPGLVKPSQTLSLTCSISGDSVSSNSAAWNWIRQSPSRGLEWLGRTYYRSKWYNDYAGTVKSRIAINPDTSKNQFSLHLNSVTPEDTAVYFCARVISVAGYAFDIWGQGTMVTVSS
VL: EIVLTQSPGTLSLSPGERATLSCRASQSVSSTFLAWYQQKPGQAPRLLIYGASYMATGIPDRFSGSGSGTDFTLTISRLEPEDFAVYYCQQYGSSLTFGGGTKLEIK
- IC50, authentic virus neutralization [NT-108] (Authentic CoV2 [5]): 0.049 µg/mL
- IC50, pseudovirus neutralization [NT-108] [6]: 0.001 µg/mL

B5: NT-193 (recombinant human IgG1/kappa antibody) (antibody, V domains shown)
VH: EVQLQQWGAGLLKPSETLSLTCAVYGGSFSGYYWSWIRQPPGKGLEWIGEINHSGSTNYNPSLKSRVTISVDTSKNQFSLKLSSVTAADTAVYYCARGWDLDYYYGMDVWGQGTTVTVSS
VL: DIRMTQSPSAMSASVGDRVTVTCRASQGIGNYLAWFQLKPGKVPKRLIYAASSLQSGVPARFSGGGSGTEFTLTISSLQPEDFATYYCLQHGFLPWTFGQGTKLEIK
- IC50, pseudovirus neutralization [1]: 0.0209 µg/mL
- IC50, authentic virus neutralization (Authentic CoV2 [2]): 0.0851 µg/mL
- IC50, authentic virus neutralization [NT-193] (Authentic CoV2 [5]): 0.241 µg/mL
- IC50, pseudovirus neutralization [NT-193] [6]: 0.0111 µg/mL
- IC50, pseudovirus neutralization [8]: 0.0061 µg/mL
- IC50 of the neutralizing activity against SARS-CoV (pseudovirus) [9]: 0.013 µg/mL

B6: NT-193, human IgG3 subclass (antibody, V domains shown)
VH: EVQLQQWGAGLLKPSETLSLTCAVYGGSFSGYYWSWIRQPPGKGLEWIGEINHSGSTNYNPSLKSRVTISVDTSKNQFSLKLSSVTAADTAVYYCARGWDLDYYYGMDVWGQGTTVTVSS
VL: DIRMTQSPSAMSASVGDRVTVTCRASQGIGNYLAWFQLKPGKVPKRLIYAASSLQSGVPARFSGGGSGTEFTLTISSLQPEDFATYYCLQHGFLPWTFGQGTKLEIK
- IC50, authentic virus neutralization [NT-193] (Authentic CoV2 [5]): 0.127 µg/mL
- IC50, pseudovirus neutralization [NT-193] [6]: 0.001 µg/mL

B7: NT-193, human IgG4 subclass (antibody, V domains shown)
VH: EVQLQQWGAGLLKPSETLSLTCAVYGGSFSGYYWSWIRQPPGKGLEWIGEINHSGSTNYNPSLKSRVTISVDTSKNQFSLKLSSVTAADTAVYYCARGWDLDYYYGMDVWGQGTTVTVSS
VL: DIRMTQSPSAMSASVGDRVTVTCRASQGIGNYLAWFQLKPGKVPKRLIYAASSLQSGVPARFSGGGSGTEFTLTISSLQPEDFATYYCLQHGFLPWTFGQGTKLEIK
- IC50, authentic virus neutralization [NT-193] (Authentic CoV2 [5]): 0.247 µg/mL
- IC50, pseudovirus neutralization [NT-193] [6]: 0.0044 µg/mL

B8: NT-193, human IgG2 subclass (antibody, V domains shown)
VH: EVQLQQWGAGLLKPSETLSLTCAVYGGSFSGYYWSWIRQPPGKGLEWIGEINHSGSTNYNPSLKSRVTISVDTSKNQFSLKLSSVTAADTAVYYCARGWDLDYYYGMDVWGQGTTVTVSS
VL: DIRMTQSPSAMSASVGDRVTVTCRASQGIGNYLAWFQLKPGKVPKRLIYAASSLQSGVPARFSGGGSGTEFTLTISSLQPEDFATYYCLQHGFLPWTFGQGTKLEIK
- IC50, authentic virus neutralization [NT-193] (Authentic CoV2 [5]): 0.212 µg/mL
- IC50, pseudovirus neutralization [NT-193] [6]: 0.0065 µg/mL
